In the data set the target is T1, T4 Dda E94C/A360C (Enterobacteria phage T4, UniProt P32270 SEQ:1-439, E94C/A360C/(ΔM1)G1G2).
T1 sequence: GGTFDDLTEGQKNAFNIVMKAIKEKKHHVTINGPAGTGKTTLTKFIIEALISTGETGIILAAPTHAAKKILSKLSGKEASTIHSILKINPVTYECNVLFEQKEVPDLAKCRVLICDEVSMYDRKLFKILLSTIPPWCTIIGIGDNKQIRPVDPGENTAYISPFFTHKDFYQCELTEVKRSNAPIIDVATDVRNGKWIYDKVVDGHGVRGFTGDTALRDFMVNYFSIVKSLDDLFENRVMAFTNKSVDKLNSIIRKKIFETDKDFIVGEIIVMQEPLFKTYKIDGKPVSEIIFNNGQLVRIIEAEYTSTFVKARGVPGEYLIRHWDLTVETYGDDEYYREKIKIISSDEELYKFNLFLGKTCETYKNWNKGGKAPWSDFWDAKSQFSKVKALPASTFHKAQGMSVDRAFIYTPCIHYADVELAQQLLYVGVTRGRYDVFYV
The experiment in a line: FP; 25 mM potassium phosphate, 151.5 mM KCl, pH 8.0, 10 mM MgCl2, 25 C, 60 min; exact value only in figure. The note with it: label: FAM on thymine 37. The method, then:
Two custom fluorescent substrates were used to assess the ability of T4 Dda—E94C/A360C helicase to bind to linear (SEQ ID NO: 64) and circular (SEQ ID NO: 65) single-stranded DNA. […] As the helicase bound to either fluorescent substrate in a buffered solution (25 mM potassium phosphate, 151.5 mM KCl, pH8.0, 10 mM MgCl₂), the fluorescence anisotropy (a property relating to the speed of tumbling of the DNA substrate in solution) increased. The lower the amount of helicase needed to effect an increase in anisotropy, the tighter the binding affinity between the DNA and helicase (FIG. 3).
T4 Dda—E94C/A360C was buffer exchanged into the binding buffer (25 mM potassium phosphate, 151.5 mM KCl, pH8.0, 10 mM MgCl₂) and then serially diluted over a concentration range of 0.02 nM to 750 nM. Each sample concentration was then mixed with linear or circular single-stranded DNA (1 nM of SEQ ID NO: 64 or 65) giving a final concentration range of T4 Dda—E94C/A360C of 0.01 nM to 375 nM and the fluorescence anisotropy assessed over the course of 60 min at 25° C.

Consider TTTTTTTTTTTTTTTTTTTTTTTTTTTTTTTTTTTTTTTTTTTT (ssDNA) [44 nt linear ssDNA], for which the dissociation constant Kd was less than 15 nM.

Source of the values: patent publication US20160257942, “MODIFIED HELICASES” (Oxford Nanopore Technologies Ltd., published 2016).
